# Test results published in the Human Domainome abundance scans (Beltran et al. 2025).
# ± gives the uncertainty stated by the source.
# B1: Nuclear receptor subfamily 4 group A member 2, residues 260 to 336; numbered along this chain, P43354 (parent)
# chain: EGLCAVCGDNAACQHYGVRTCEGCKGFFKRTVQKNAKYVCLANKNCPVDKRRRNRCQYCRFQKCLAVGMVKEVVRTD
# B2: Transcription elongation factor A N-terminal and central domain-containing protein, residues 30 to 77; numbered along this chain, Q8N8B7 (parent)
# chain: LTELETIYVTKEHLQETDVVRAVYRVLKNCPSVALKKKAKCLLSKWKA
# Variants of: B1
# Test: abundance fitness (aPCA) (normalised: wild type 0, dead -1); higher = more abundant; growth selection in yeast, the domain comes from the species named
# Conditions: Homo sapiens
row,Variant,abundance fitness
1,G17I,0.092 ± 0.4
2,G68C,-0.489 ± 0.083
3,G68A,-0.26 ± 0.13
4,K29T,-0.066 ± 0.16
5,V73F,0.02 ± 0.074
6,V73E,-0.063 ± 0.086
7,K71R,-0.054 ± 0.055
8,V48R,-0.449 ± 0.1
9,V18H,-0.387 ± 0.24
10,V18C,-0.263 ± 0.35
11,P47S,-0.076 ± 0.12
12,V74K,-0.025 ± 0.31
13,Q62M,0.079 ± 0.12
14,Q62V,-0.137 ± 0.048
15,Q14Y,0.572 ± 0.32
16,N35Y,-0.139 ± 0.15
17,N35M,-0.173 ± 0.11
18,G8M,-0.019 ± 0.21
19,E72D,0.11 ± 0.15
20,D49M,-0.11 ± 0.37
21,C13K,0.099 ± 0.11
22,F28L,-0.15 ± 0.077
23,V70G,-0.017 ± 0.034
24,F27E,-0.959 ± 0.33
25,R75E,0.094 ± 0.087

# Variants of: B2
# Test: as above
# Conditions: Homo sapiens
row,Variant,abundance fitness
1,R21D,-0.759 ± 0.27
2,R21I,-1.03 ± 0.3
3,R21P,-0.514 ± 0.15
4,R21W,-0.549 ± 0.14
5,E3I,-0.112 ± 0.26
6,E3N,-0.001 ± 0.46
7,E3P,-0.45 ± 0.12
8,E3R,-0.24 ± 0.083
9,E3K,-0.195 ± 0.12
10,E3S,-0.149 ± 0.11
11,E3W,0.305 ± 0.084
12,E3D,-0.209 ± 0.12
13,N29P,-0.904 ± 0.17
14,N29F,-0.09 ± 0.15
15,N29Y,-0.466 ± 0.14
16,N29R,0.144 ± 0.081
17,N29D,-0.193 ± 0.17
18,N29K,-0.029 ± 0.11
19,N29A,-0.086 ± 0.08
20,L35F,-0.293 ± 0.28
21,L35S,-0.8 ± 0.37
22,L27A,-0.593 ± 0.11
23,L27F,-0.754 ± 0.27
24,L27Y,-0.352 ± 0.14

row,Variant,abundance fitness
1,L27C,-0.994 ± 0.21
2,L27E,-0.932 ± 0.16
3,L27Q,-0.648 ± 0.27
4,A48H,-0.331 ± 0.23
5,A48R,0.034 ± 0.37
6,A48T,0.162 ± 0.24
7,L14M,0.16 ± 0.082
8,L14Y,-0.124 ± 0.18
9,L14D,0.184 ± 0.083
10,L14G,0.252 ± 0.054
11,L14E,0.336 ± 0.065
12,L14W,0.094 ± 0.06
13,L14K,0.23 ± 0.082
14,T2V,-0.813 ± 0.15
15,T2P,-0.629 ± 0.15
16,T2M,-0.461 ± 0.16
17,T2L,-0.389 ± 0.1
18,T2R,0.011 ± 0.08
19,T2F,-0.483 ± 0.2
20,S32V,0.289 ± 0.13
21,S32N,-0.017 ± 0.13
22,S32L,0.355 ± 0.089
23,S32Q,-0.439 ± 0.32
24,S32A,0.103 ± 0.15

row,Variant,abundance fitness
1,T6D,0.094 ± 0.1
2,T6E,0.126 ± 0.1
3,L4H,0.025 ± 0.089
4,L4P,0.279 ± 0.11
5,L4R,0.11 ± 0.058
6,L4D,0.257 ± 0.092
7,L4E,0.173 ± 0.072
8,E16N,-0.187 ± 0.15
9,E16K,-0.152 ± 0.18
10,E16S,0.021 ± 0.093
11,E16D,0.043 ± 0.13
12,E16H,-0.153 ± 0.26
13,E16V,-0.279 ± 0.087
14,E16T,-0.116 ± 0.12
15,E16R,0.123 ± 0.071
16,E16A,-0.017 ± 0.088
17,E16Y,-0.004 ± 0.12
18,E16W,-0.414 ± 0.15
19,E16M,0.041 ± 0.12
20,E16Q,0.285 ± 0.25
21,V33E,-0.208 ± 0.093
22,V33L,0.174 ± 0.087
23,V33G,0.012 ± 0.068
24,V33S,0.089 ± 0.09

row,Variant,abundance fitness
1,V33A,-0.016 ± 0.081
2,V33P,0.129 ± 0.11
3,V33Q,0.007 ± 0.097
4,V33H,-0.527 ± 0.2
5,V33R,0.155 ± 0.064
6,L42P,-1.01 ± 0.35
7,L42K,-1.13 ± 0.23
8,L42N,-0.871 ± 0.26
9,L42H,-1.02 ± 0.45
10,L42S,-0.77 ± 0.12
11,L42M,-0.203 ± 0.17
12,L42A,-0.689 ± 0.11
13,L42T,-0.703 ± 0.2
14,L42F,-0.174 ± 0.14
15,A34M,-0.163 ± 0.14
16,A34F,-0.305 ± 0.32
17,A34L,-0.279 ± 0.099
18,A34C,0.149 ± 0.18
19,A34G,-0.028 ± 0.075
20,A34H,-0.057 ± 0.23
21,P31W,0.382 ± 0.075
22,P31E,-0.357 ± 0.073
23,P31M,0.457 ± 0.08
24,P31T,0.341 ± 0.077

row,Variant,abundance fitness
1,P31L,0.355 ± 0.063
2,P31V,0.337 ± 0.062
3,T10S,-0.121 ± 0.084
4,T10F,-0.547 ± 0.22
5,T10L,-0.674 ± 0.14
6,T10W,-0.315 ± 0.095
7,L1R,-0.202 ± 0.33
8,L1M,0.235 ± 0.39
9,I7E,0.3 ± 0.085
10,I7C,-0.541 ± 0.13
11,I7H,-0.212 ± 0.36
12,I7A,0.131 ± 0.076
13,I7D,0.203 ± 0.087
14,I7M,0.244 ± 0.11
15,I7R,0.008 ± 0.069
16,I7V,0.006 ± 0.072
17,I7P,0.091 ± 0.13
18,I7L,-0.07 ± 0.079
19,Y24M,0.315 ± 0.075
20,Y24F,0.172 ± 0.13
21,Y24L,0.205 ± 0.076
22,Y24N,-0.362 ± 0.15
23,Y24G,-0.345 ± 0.068
24,Y24R,0.277 ± 0.066

row,Variant,abundance fitness
1,Y24V,0.11 ± 0.07
2,S44I,-0.695 ± 0.28
3,S44P,-0.891 ± 0.14
4,S44W,-0.237 ± 0.13
5,S44C,-0.73 ± 0.15
6,S44F,-0.158 ± 0.13
7,S44R,0.021 ± 0.086
8,S44H,0.079 ± 0.25
9,S44N,-0.351 ± 0.15
10,S44D,-0.537 ± 0.18
11,T17H,-0.37 ± 0.32
12,T17F,-0.852 ± 0.24
13,T17P,0.057 ± 0.15
14,T17W,-0.142 ± 0.11
15,T17A,-0.43 ± 0.12
16,T17C,-0.103 ± 0.11
17,T17M,0.192 ± 0.15
18,T17L,-0.892 ± 0.14
19,T17G,-0.092 ± 0.072
20,T17E,-0.315 ± 0.13
21,K47H,-0.268 ± 0.16
22,K47D,-0.762 ± 0.2
